From the supplement of paper PMC12764529
± gives the half width of the 95% confidence interval.

How the values were obtained:
[1] = folding stability dG unfold from trypsin proteolysis; higher = more stable
Outline: (§1)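 Only designs with AlphaFold2 dimer inter-PAE above 15 were retained; each was a mini-protein under 80 residues with no cysteine, in a PA-tagged cDNA display construct. After digestion with trypsin and chymotrypsin and sequencing, K50 was inferred by Bayesian fitting of counts, and unfolding free energy was derived per protease or combined against a sequence-predicted unfolded-state K50 and a shared folded-state K50.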

[2] = folding stability dG unfold from chymotrypsin proteolysis; higher = more stable
Outline: as §1

[3] = folding stability dG unfold (combined trypsin and chymotrypsin); higher = more stable
Outline: as §1

Row | Sequence | folding stability dG unfold [1] [kcal/mol] | folding stability dG unfold [2] [kcal/mol] | folding stability dG unfold [3] [kcal/mol]
1 | SAGGKKKKVVIKLPSTNKAVEAELVSVKKGKNKYYLEIKLPNGKKYKFPLEVIGDFKWDEGEGTLEVPSAGG [r13_211_TrMRF] | 1.79 ± 0.047 | 2.98 ± 0.05 | 2.66 ± 0.11
2 | SAGGKKKLVEITIKVPPGMTVEELIAEIAKKLPPGAKIVKVEYDKETKEIKIIVYDEKTKKKIEIKFSAGGS [r16_250_TrROS_Hall] | 1.81 ± 0.049 | 1.51 ± 0.036 | 1.64 ± 0.14
3 | SAGGKKKTAEELAEELKKKLEELGFKVVKIEKLPDGTVLITFEDGYVIKFDVKTGKITIMPKEELEKLSAGG [r13_717_TrROS_Hall] | 1.62 ± 0.11 | 2.16 ± 0.029 | 1.96 ± 0.079
4 | SAGGKKKYKLIIKIKFKKGDIDKAKKEVEAIANKIKDEFEKKGVKVKVKVSYDKDNDIVYIEVEFEVPSAGG [r13_755_TrMRF] | 3.36 ± 0.12 | 4.43 ± 0.082 | 4.24 ± 0.14
5 | SAGGKKMTFKVDEIQTHGNQIMIPIRFPDGHPFPMQIDDPEQLDNLKPGEEIKIEFRPDGSFRIEWRSAGGS [r16_2_TrROS] | 1.45 ± 0.066 | 1.65 ± 0.18 | 1.55 ± 0.17
6 | SAGGKKPERVKITIMIPFDDPDKLRNFLRNHGFKVDEVEPNKEGMLAVEFEFPGYEIEIIIMDPGAMSAGGS [r16_170_TrROS] | 2.83 ± 0.16 | 3.74 ± 0.087 | 3.35 ± 0.14
7 | SAGGKKTFKVTLTLELKVERDEETGELKTETLTLTLTIEAESEEEAEKALKELLEKLELSPELKKALSAGGS [r16_40_TrROS_Hall] | 2.17 ± 0.082 | 3.76 ± 0.064 | 3.4 ± 0.097
8 | SAGGKKVFTLDELKKLAEELNIEKIEVKEDEEGIYTFTFTDLAKKTGKEVTIKIVRNKNGELLVEIEPSAGG [r13_163_TrROS_Hall] | 1.78 ± 0.074 | 2.9 ± 0.087 | 2.53 ± 0.14
9 | SAGGKKVKIKVTIVIKVEPGESVEEIAKKLAEELGLKVEVKVEVVKRKDGSLYVVIEVEIELPEELKPSAGG [r13_590_TrROS_Hall] | 2.3 ± 0.16 | 3.18 ± 0.24 | 2.85 ± 0.56
10 | SAGGKKVVIVFDVENLTPEQIRELVRKAIESLPDPENVVIVANVTSPATVEELAELAKEHPEVKFVVGSAGG [r13_718_TrMRF] | 3.79 ± 0.11 | 3.45 ± 0.085 | 3.56 ± 0.12
11 | SAGGKLTELIRSLFEKLNVPLEPLETGPNSAIFRFPGKPGVFELPGNSRIVIFEDGLVVVVAPPNDLSAGGS [r8_297_TrMRF] | 1.51 ± 0.1 | 1.57 ± 0.093 | 1.61 ± 0.081
12 | SAGGKLTITLPPGVKEVKIEVDKETNEVKVTVTVEVTDENGKKHKVTRTFTFKLEDGETVTVTVTLPSAGGS [r16_552_TrROS_Hall] | 4.42 ± 0.27 | 5.43 ± 0.13 | 5.44 ± 0.28
13 | SAGGKLTLEEIKALLKEGKEYSLEELLKKIAELLNLTVELEEEPEKVTVVKVDPETGEIVEEKEIDLSAGGS [r8_105_TrROS_Hall] | 2.01 ± 0.1 | 2.44 ± 0.036 | 2.28 ± 0.11
14 | SAGGKLTPEEIEELAKKLAEELRKEGKEVEIEVEIEVDGKLIKIKMKIDPKTKKIEIVKIEVYPKEDLSAGG [r13_37_TrROS_Hall] | 3.9 ± 0.14 | 2.93 ± 0.092 | 3.58 ± 0.21
15 | SAGGKMKLEVEILENEGTILVRFHFGDKVLEIPLPFPNLTPEDVKEAAEEIAKKLKEEYNIEEVEIESAGGS [r16_249_TrMRF] | 2.33 ± 0.13 | 3.18 ± 0.23 | 2.64 ± 0.28
16 | SAGGKMVIVKIRIKERKVKVEKTKDGKEKKVEVEEKEKEITLIVEGSEEEVKKLAEELEKLGLEVEVISAGG [r13_452_TrROS_Hall] | 1.2 ± 0.063 | 2.52 ± 0.079 | 2.28 ± 0.14
17 | SAGGKNDVKTKTYEIEKDGGKITIEFEKLPDGKYKATVTYPDGKKETLVFDLGEGKEEEFAKEIAKKKSAGG [r13_296_TrMRF] | 1.46 ± 0.12 | 3.05 ± 0.067 | 2.48 ± 0.38
18 | SAGGKNITIDDITFQPQRDNGKPRYYMEVKVELPNGNPIPITMPMDRMQNNGMSPKTFAKWIAKWLLSAGGS [r16_625_TrROS] | 1.04 ± 0.13 | 1.5 ± 0.22 | 1.3 ± 0.12

Row | Sequence | folding stability dG unfold [1] [kcal/mol] | folding stability dG unfold [2] [kcal/mol] | folding stability dG unfold [3] [kcal/mol]
19 | SAGGKPKEITLVVKVGETVEFPEGAEVTYDKETGTVTIKLPDGRTIRVEVTYNPDTDYLVVKITVEPSAGGS [r16_122_TrROS_Hall] | 2.07 ± 0.074 | 2.41 ± 0.083 | 2.34 ± 0.13
20 | SAGGKPKIRIKIEIYTPEKKETIELEFDSVEEALEALASLPGVKVEKLPDGTIYIKIPNLIIKIEIEPSAGG [r13_143_TrROS_Hall] | 3.19 ± 0.2 | 3.57 ± 0.1 | 3.42 ± 0.3
21 | SAGGKPKKTILIPLIVPPGKPESAIKALAEFLEAKGYELERIEPVPVGDRLRLVAIFRKPDGTEIKVGSAGG [r13_421_TrMRF] | 1.66 ± 0.037 | 1.9 ± 0.11 | 1.78 ± 0.069
22 | SAGGKPKPGQEVEMKMIMLMVTKPGEITIMRMKMEMRVNPDGNVQMDMKMEMVRVPLSKDQAKELLNASAGG [r13_544_TrROS] | 2.68 ± 0.07 | 4.25 ± 0.24 | 3.69 ± 0.36
23 | SAGGKPLLIKVKVRLKNGKELTITVREGESLEEILARARELLGKPIEVEKIEVIPLPPKKEVKKKEKSAGGS [r8_285_TrROS_Hall] | 1.48 ± 0.019 | 2.86 ± 0.072 | 2.46 ± 0.093
24 | SAGGKPNEKVKIKIKNKDGSEETIEIKVDEEVKIKIKFNGEEKEITIKKGETLTITLENAEIEVEKVSAGGS [r16_456_TrROS_Hall] | 1.95 ± 0.16 | 1.83 ± 0.22 | 1.94 ± 0.31
25 | SAGGKPVRILVIAGKGIRPLEIPVDEDKTVEAEFKFGDHTIRIRVSPKEKKIEVEAPSNFKIIILEPSAGGS [r16_761_TrMRF] | 2.96 ± 0.092 | 3.14 ± 0.042 | 2.98 ± 0.12
26 | SAGGKSIHIADATLEDLVDLIANLPEPVVIHVERPVTFPVLLLENGVVAAVRTETAPATLTLTIPPELSAGG [r13_632_TrMRF] | 0.408 ± 0.021 | 0.258 ± 0.087 | 0.389 ± 0.05
27 | SAGGKSVHIPGLSFEDLRDLIRNLPEPVTIHIEMPMRYPMYKYENGKPKEWQRQEMPMTSTFKIPPDDSAGG [r13_632_TrROS] | -1.01 ± 0.47 | -0.522 ± 0.36 | -0.565 ± 0.23
28 | SAGGKTIMIMFTPDNAEEIAETIVDEFGYDVKIEKVQPMPMKDPDGKQKAPYYMIEIEIKVPDPGQPLSAGG [r13_943_TrROS] | 0.945 ± 0.033 | -0.282 ± 0.22 | 0.505 ± 0.094
29 | SAGGKTITIKVKLENGEEKTIEVKVDEVKIEKKNGKLVITFKDGKKITIPLDKIEDMSEDEIKKLLEKSAGG [r13_925_TrROS_Hall] | 2.72 ± 0.15 | 3.03 ± 0.18 | 2.97 ± 0.2
30 | SAGGKTITLPNGITITVNEDGTVTVTVTVDGKTLTVTVKVDSLEEALAAILEELRRLLKPPEVTVVKPSAGG [r13_896_TrROS_Hall] | 2.52 ± 0.097 | 3.43 ± 0.13 | 3.07 ± 0.17
31 | SAGGKTIVIKVKTKEQAKALAEELAKKLKDAGYTVTVTYDEETGVVTVTVTVKVNGKTKKITLVLELPSAGG [r13_641_TrROS_Hall] | 3.51 ± 0.074 | 3.05 ± 0.043 | 3.26 ± 0.038
32 | SAGGKTIWIFFPPDNPEEFLEELAQLPNVTDVEVWRHNDYYMIEIRLEGLPIEIHYNPEGYYMIEIELSAGG [r13_907_TrROS] | 2.39 ± 0.14 | 3.71 ± 0.074 | 3.48 ± 0.16
33 | SAGGKTKEIELEILFEPVKVKKKKKNKNGKEEEVEEKEFKPVLVRITLKIENGKITEIKIEVEKLDDLSAGG [r13_935_TrROS_Hall] | 2.05 ± 0.077 | 3.37 ± 0.11 | 2.93 ± 0.26
34 | SAGGKTLTIEVNGKKYKITVEKNENGELTLTIYEYDKKTKKWKKIKTIKLKNMSLEEVLKLLKKLPPSAGGS [r16_378_TrROS_Hall] | 4.09 ± 0.2 | 4.91 ± 0.19 | 4.58 ± 0.3
35 | SAGGKTLYVVRITRRVRVDGKLYEVTLTLVAESEEEAEEALRKLAEELEALFPDEIRIEVEKVELPPSAGGS [r16_475_TrROS_Hall] | 3.93 ± 0.13 | 5.7 ± 0.24 | 5.5 ± 0.25
